Test results reported in patent publication US20250057951A1, “DISCERNIBLE CELL SURFACE PROTEIN VARIANTS OF CD117 FOR USE IN CELL THERAPY” (UNIVERSITÄT BASEL, priority 2021, published 2025).
Substitutions are numbered along the chain they refer to. Names may count otherwise. Each block holds one molecule with its values, some of them ahead of it.

Assays:
[1] = test system: antibody Refmab #1; assay: Octet screen: binding of CD117 D1-2-3 variants to captured Refmab #1; settings: nm shift at end of association, top analyte concentration (500 nM)
Sequence of antibody Refmab #1 (as listed by the source): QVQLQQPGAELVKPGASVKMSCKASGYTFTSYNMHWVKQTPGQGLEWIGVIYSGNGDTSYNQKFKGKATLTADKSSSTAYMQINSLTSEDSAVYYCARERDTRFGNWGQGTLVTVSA
Sequence of antibody Refmab #1 (as listed by the source): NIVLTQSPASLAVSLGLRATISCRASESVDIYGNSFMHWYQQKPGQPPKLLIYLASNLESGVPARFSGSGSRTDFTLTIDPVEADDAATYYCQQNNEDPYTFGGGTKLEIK
Protocol: A more sophisticated analysis of binding to the elected variants was performed with antibody Refmab #1. Binding of Refmab #1 to wt and variants (analyte) was measured in an Octet system RED96e or R8 at 25° C. with shaking at 1,000 rpm using 1× kinetic buffer (Sartorius, PN: 18-1105). First, the elected variants were screened for their ability to bind Refmab #1 using three different concentrations of analytes. Antibody Refmab #1 was captured by Anti-Human Fc capture biosensor (AHC) (Sartorius, PN: 18-5060) for 300 s at 0.5 to 1 μg/mL. As an analyte, human CD117 wt and variants, containing only domains 1, 2 and 3 (CD117 D1-2-3), was titrated at 500 nM, 50 nM and 5 nM. Association and dissociation of the analyte to Refmab #1 was monitored for 300 s and 900 s, respectively. Reference subtraction was performed against buffer only wells. AHC tips were regenerated using 10 mM Gly-HCl pH 1.7. Data were analyzed using the Octet Data Analysis software HT 12.0. Data were fitted (when possible) to a 1:1 binding model. Kinetic rates ka and […] globally fitted. Binding level of the elected variants were compared to wild type and are shown as percent in FIG. 7. For this qualitative analysis, the binding level of the top analyte concentration at end of the association step was used.

[2] = target: antibody Refmab #1; assay: Octet titration, steady state KD of CD117 D1-2-3 variants to Refmab #1; format: binding; settings: for Kd: 7 concentrations 2000-5 nM, steady state, two individual experiments; for change of KD compared to wild type CD117: KD variant vs wild type; for binding of Refmab #1 at 2000 nM variant: nm shift higher than 0.1 nm counts as binding
Protocol: To further characterize binding of Refmab #1 to CD117 D1-2-3 variants E73K, E73L, E73R, E73Y, D121H, D121K, S123K and S123F, the analytes were titrated at 7 different concentrations (from 2000 nM to 5 nM). Antibody Refmab #1 was captured by AHC biosensors for 300 s at 0.5 to 1 μg/mL. Association and dissociation to Refmab #1 was extended to 600 s and 1000 s, respectively. Steady state analysis was performed.

[3] = test system: TF-1 cells; assay: SCF-dependent proliferation, SCF titration on TF-1 cells with CD117 variants (CellTiter-Glo); format: cell-based, human
Protocol: In another experiment, SCF-dependent proliferation of variants E73K, E73Y, D121K, S123F and S123K was compared against wildtype CD117. TF-1 cells were seeded at a cell concentration of 150 000 cells/ml in sterile, white cell culture treated plates with transparent bottom in RPMI+GlutaMax+10% FCS. Cells were treated with a titration of SCF. After 3 days of incubation a CellTiter-Glo 2.0 assay (Promega) was performed, luminescence was read in a luminometer (Envision plate reader) and EC50's was determined. Two different experiments with triplicates in each experiment were performed.

[4] = target: T1, Biotinylated Avitag-hSCF (human, UniProt P21583 26-190, limits assumed, biotinylated Avitag); assay: BLI (Octet), steady state: biotinylated SCF on streptavidin biosensor, CD117 D1-2-3 variant as analyte; KD relative to WT
T1 construct: Bought reagent; also called hSCF (Acros Biosystems SCF-H82E1)
T1 sequence (P21583 26-190 limits assumed): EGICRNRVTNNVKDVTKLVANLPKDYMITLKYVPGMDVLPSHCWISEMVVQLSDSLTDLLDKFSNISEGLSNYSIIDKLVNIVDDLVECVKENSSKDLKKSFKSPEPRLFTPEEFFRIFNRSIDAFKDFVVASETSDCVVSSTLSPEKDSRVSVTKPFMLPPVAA
Protocol: Domains 4 and 5 were used as a negative, non-binding control.
Association was monitored for 300 s and dissociation for 600 s. […] Reference subtraction was performed against buffer only wells. Biosensors were not regenerated and a new set of SA biosensors was used for each analyte. Data were analyzed using the Octet Data Analysis software HT 12.0. Steady state data analysis was performed due to the fast on/off nature of the interaction.

[5] = titration of SCF, 3 days, TF-1 cells with the CD117 variant

Molecule: S1231: variant of human CD117, printed S1231, probably substitution S123I
binding to Refmab #1 compared to wild type [1]: strong decrease in binding

Molecule: S123F: variant of human CD117 with substitution S123F
binding to Refmab #1 compared to wild type [1]: particular strong decrease in binding | Kd [2]: 1500 nM | change of KD compared to wild type CD117 [2]: around 1,500 fold | EC50 Average ([3]; average of two experiments): 3.82 ± 0.19 ng/mL | EC50 Experiment #1 [3, 5]: 4.01 ng/mL | EC50 Experiment #2 [3, 5]: 3.63 ng/mL

B1: K193G (receptor)
extracellular domains 1, 2 and 3: QPSVSPGEPSPPSIHPGKSDLIVRVGDEIRLLCTDPGFVKWTFEILDETNENKQNEWITEKAEATNTGKYTCTNKHGLSNSIYVFVRDPAKLFLVDRSLYGKEDNDTLVRCPLTDPEVTNYSLKGCQGKPLPKDLRFIPDPKAGIMIKSVKRAYHRLCLHCSVDQEGGSVLSEKFILKVRPAFKAVPVVSVSKASYLLREGEEFTVTCTIKDVSSSVYSTWKRENSQTKLQEKYNSWHHGDFNYERQATLTISSARVNDSGVFMCYANNTFGSANVTTTLEVVD
notes: not in the list MOLECULES; also called human CD117 D1-2-3 variant K193G
binding result [4]: binds

B2: D121V (receptor)
extracellular domains 1, 2 and 3: B1 extracellular domains 1, 2 and 3 with D96V, G168K
notes: not in the list MOLECULES; also called human CD117 D1-2-3 variant D121V
binding result [4]: binds

B3: R122L (receptor)
extracellular domains 1, 2 and 3: B1 extracellular domains 1, 2 and 3 with R97L, G168K
notes: not in the list MOLECULES; also called human CD117 D1-2-3 variant R122L
binding result [4]: binds

B13: S123P: variant of human CD117 with substitution S123P (protein)
chain: QPSVSPGEPSPPSIHPGKSDLIVRVGDEIRLLCTDPGFVKWTFEILDETNENKQNEWITEKAEATNTGKYTCTNKHGLSNSIYVFVRDPAKLFLVDRPLYGKEDNDTLVRCPLTDPEVTNYSLKGCQGKPLPKDLRFIPDPKAGIMIKSVKRAYHRLCLHCSVDQEGKSVLSEKFILKVRPAFKAVPVVSVSKASYLLREGEEFTVTCTIKDVSSSVYSTWKRENSQTKLQEKYNSWHHGDFNYERQATLTISSARVNDSGVFMCYANNTFGSANVTTTLEVVDKG
binding to Refmab #1 compared to wild type [1]: particular strong decrease in binding

B14: D121Y: variant of human CD117 with substitution D121Y (protein)
chain: B13 chain with D96Y, P98S
binding to Refmab #1 compared to wild type [1]: particular strong decrease in binding

B15: D121H: variant of human CD117 with substitution D121H (protein)
chain: B13 chain with D96H, P98S
binding to Refmab #1 compared to wild type [1]: particular strong decrease in binding | binding of Refmab #1 at 2000 nM variant [2]: No binding

B16: E73R: variant of human CD117 with substitution E73R (protein)
chain: B13 chain with E48R, P98S
binding to Refmab #1 compared to wild type [1]: particular strong decrease in binding | Kd [2]: 958 nM | change of KD compared to wild type CD117 [2]: around 1000 fold

B17: S123E: variant of human CD117 with substitution S123E (protein)
chain: B13 chain with P98E
binding to Refmab #1 compared to wild type [1]: particular strong decrease in binding | binding of Refmab #1 at 2000 nM variant [2]: do not show any binding

B18: D121T: variant of human CD117 with substitution D121T (protein)
chain: B13 chain with D96T, P98S
binding to Refmab #1 compared to wild type [1]: particular strong decrease in binding

B19: D121R: variant of human CD117 with substitution D121R (protein)
chain: B13 chain with D96R, P98S
binding to Refmab #1 compared to wild type [1]: strong decrease in binding

B20: S123M: variant of human CD117 with substitution S123M (protein)
chain: B13 chain with P98M
binding to Refmab #1 compared to wild type [1]: strong decrease in binding

B21: E73L: variant of human CD117 with substitution E73L (protein)
chain: B13 chain with E48L, P98S
Kd [2]: 485 nM | change of KD compared to wild type CD117 [2]: around 500 fold

B22: S123Q: variant of human CD117 with substitution S123Q (protein)
chain: B13 chain with P98Q
binding to Refmab #1 compared to wild type [1]: strong decrease in binding

Second part, the molecule after the results:

binding result [4]: binds
B4: K193D (receptor)
extracellular domains 1, 2 and 3: B1 extracellular domains 1, 2 and 3 with G168D
notes: not in the list MOLECULES; also called human CD117 D1-2-3 variant K193D

binding to Refmab #1 compared to wild type [1]: particular strong decrease in binding | binding result [4]: binds
B5: R122S (receptor)
extracellular domains 1, 2 and 3: B1 extracellular domains 1, 2 and 3 with R97S, G168K
notes: not in the list MOLECULES; also called human CD117 D1-2-3 variant R122S

binding to Refmab #1 compared to wild type [1]: particular strong decrease in binding | binding result [4]: binds
B6: R122E (receptor)
extracellular domains 1, 2 and 3: B1 extracellular domains 1, 2 and 3 with R97E, G168K
notes: not in the list MOLECULES; also called human CD117 D1-2-3 variant R122E

binding result [4]: binds
B7: E73G (receptor)
extracellular domains 1, 2 and 3: B1 extracellular domains 1, 2 and 3 with E48G, G168K
notes: not in the list MOLECULES; also called human CD117 D1-2-3 variant E73G

binding result [4]: binds
B8: K193M (receptor)
extracellular domains 1, 2 and 3: B1 extracellular domains 1, 2 and 3 with G168M
notes: not in the list MOLECULES; also called human CD117 D1-2-3 variant K193M

binding result [4]: binds
B9: K193T (receptor)
extracellular domains 1, 2 and 3: B1 extracellular domains 1, 2 and 3 with G168T
notes: not in the list MOLECULES; also called human CD117 D1-2-3 variant K193T

binding result [4]: binds
B10: V120I (receptor)
extracellular domains 1, 2 and 3: B1 extracellular domains 1, 2 and 3 with V95I, G168K
notes: not in the list MOLECULES; also called human CD117 D1-2-3 variant V120I

binding result [4]: binds
B11: K193E (receptor)
extracellular domains 1, 2 and 3: B1 extracellular domains 1, 2 and 3 with G168E
notes: not in the list MOLECULES; also called human CD117 D1-2-3 variant K193E

binding result [4]: binds
B12: D121S (receptor)
extracellular domains 1, 2 and 3: B1 extracellular domains 1, 2 and 3 with D96S, G168K
notes: not in the list MOLECULES; also called human CD117 D1-2-3 variant D121S
